The target of test [1] is T1, human FcγRIIb constitutively expressed on MDCK cells (human, UniProt P31994 43-310).
T1 sequence (looked up): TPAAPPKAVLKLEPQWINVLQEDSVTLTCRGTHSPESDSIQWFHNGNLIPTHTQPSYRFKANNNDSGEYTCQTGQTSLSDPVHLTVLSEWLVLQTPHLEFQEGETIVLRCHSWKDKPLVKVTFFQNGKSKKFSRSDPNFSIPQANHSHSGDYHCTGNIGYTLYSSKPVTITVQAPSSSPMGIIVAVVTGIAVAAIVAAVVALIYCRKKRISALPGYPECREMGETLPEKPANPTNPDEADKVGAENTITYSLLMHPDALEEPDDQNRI
Put plainly: cell-based or functional assay.

The target in test [2] is T2, cynomolgus monkey FcγRIIa3 extracellular domain with C-terminal His-tag (cynomolgus monkey).
T2 construct: also called cyno FcgRIIa3; cynoFcγRIIa3
T2 chain: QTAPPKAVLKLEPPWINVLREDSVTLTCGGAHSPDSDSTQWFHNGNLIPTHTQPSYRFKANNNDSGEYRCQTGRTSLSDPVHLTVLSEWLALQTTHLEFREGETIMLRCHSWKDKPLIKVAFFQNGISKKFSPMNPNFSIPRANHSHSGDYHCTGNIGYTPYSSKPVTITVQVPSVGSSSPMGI
Put plainly: SPR (BIACORE); KD of SG1 / KD of variant.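 Also: relative to parent M103205H795-SG1 carrying the SG1 human heavy chain constant region.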

Test [3] has as its target T3, cynomolgus monkey FcγRIIIaS extracellular domain, C-terminal His-tag (cynomolgus monkey, UniProt Q8SPW2 21-206 at identity 1.00)).
T3 construct: also called cyno FcγRIIIaS; FcgRIIIaS
T3 chain: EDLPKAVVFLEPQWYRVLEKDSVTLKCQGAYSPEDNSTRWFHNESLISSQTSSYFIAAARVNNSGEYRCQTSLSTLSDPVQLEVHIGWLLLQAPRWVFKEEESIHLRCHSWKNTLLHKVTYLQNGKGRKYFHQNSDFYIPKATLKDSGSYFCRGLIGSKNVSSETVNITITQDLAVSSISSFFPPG
Put plainly: SPR (BIACORE) 25C, antibody captured, FcgR as analyte. On the procedure:
(§1) The kinetic analysis of interactions between these antibodies and FcγR was carried out using BIACORE® T200 or BIACORE® 4000 (GE Healthcare). HBS-EP+ (GE Healthcare) was used as the running buffer, and the measurement temperature was set to 25° C. A chip produced by immobilizing Protein A. Protein A/G or mouse anti-human IgG kappa light chain (BD Biosciences) onto a Series S Sensor Chip CM4 or CM5 (GE Healthcare) by the amine-coupling method was used. […] After the measurement, the antibody captured on the chip was washed off by allowing reaction with 10 mM glycine-HCl, pH1.5 and 25 mM NaOH so that the chip was regenerated and used repeatedly. The sensorgrams obtained as measurement results were analyzed by the 1:1 Langmuir binding model using the BIACORE® Evaluation Software to calculate the binding rate constant ka (L/mol/s) and dissociation rate constant kd (l/s), and the dissociation constant KD (mol/L) was calculated from these values. […] Regarding such interactions, KD values were calculated using the following 1:1 binding model described in BIACORE® T100 Software Handbook BR1006-48 Edition AE.
For orientation: In SPR one partner is held on a chip, and binding of the other changes the refractive index at the surface.

Test [4] deals with T4, human FcγRIIaH extracellular domain, C-terminal His-tag (human, UniProt P12318 34-217).
T4 construct: also called human FcγRIIa (type H); FcgRIIaH
T4 sequence: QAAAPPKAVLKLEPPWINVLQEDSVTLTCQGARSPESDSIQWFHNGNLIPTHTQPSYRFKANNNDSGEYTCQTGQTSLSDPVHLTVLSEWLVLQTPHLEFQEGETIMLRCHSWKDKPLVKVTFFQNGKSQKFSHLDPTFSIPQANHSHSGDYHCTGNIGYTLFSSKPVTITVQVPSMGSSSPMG
The test is described as above. As for the experimental part:
as §1

Test [5] has as its target T5, cynomolgus monkey FcγRIIa1 extracellular domain, C-terminal His-tag (cynomolgus monkey).
T5 construct: also called cyno FcγRIIa1; FcgRIIa1
T5 chain: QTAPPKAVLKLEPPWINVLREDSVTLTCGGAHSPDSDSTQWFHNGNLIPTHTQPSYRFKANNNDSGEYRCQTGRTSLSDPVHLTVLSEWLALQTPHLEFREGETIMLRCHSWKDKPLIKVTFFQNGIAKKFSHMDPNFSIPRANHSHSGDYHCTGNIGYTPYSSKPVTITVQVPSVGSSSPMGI
Briefly: SPR; FcgR bound per captured antibody, normalized to SG1.

Test [6] has as its target T6, cynomolgus monkey FcγRIIa2 extracellular domain, C-terminal His-tag (cynomolgus monkey).
T6 construct: also called cyno FcγRIIa2; FcgRIIa2
T6 chain: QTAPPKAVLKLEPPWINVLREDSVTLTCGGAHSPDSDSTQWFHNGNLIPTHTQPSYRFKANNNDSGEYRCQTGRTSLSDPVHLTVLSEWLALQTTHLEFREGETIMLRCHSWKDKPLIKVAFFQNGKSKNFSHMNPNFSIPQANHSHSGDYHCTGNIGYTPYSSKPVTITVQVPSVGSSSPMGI
Described as above.

Test [7] has as its target T7, cynomolgus monkey FcγRIIa3 extracellular domain, C-terminal His-tag (cynomolgus monkey).
T7 construct: also called cyno FcγRIIa3; FcgRIIa3
T7 chain: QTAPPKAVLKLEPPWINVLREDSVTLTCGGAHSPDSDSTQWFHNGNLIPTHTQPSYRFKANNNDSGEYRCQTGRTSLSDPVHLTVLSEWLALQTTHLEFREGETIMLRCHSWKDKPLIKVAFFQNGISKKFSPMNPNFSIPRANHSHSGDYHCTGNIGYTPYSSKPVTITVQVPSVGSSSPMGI
The description is as above.

The target in test [8] is T8, cynomolgus monkey FcγRIIb extracellular domain, C-terminal His-tag (cynomolgus monkey).
T8 construct: also called cyno FcγRIIb; cynoFcγRIIb
T8 chain: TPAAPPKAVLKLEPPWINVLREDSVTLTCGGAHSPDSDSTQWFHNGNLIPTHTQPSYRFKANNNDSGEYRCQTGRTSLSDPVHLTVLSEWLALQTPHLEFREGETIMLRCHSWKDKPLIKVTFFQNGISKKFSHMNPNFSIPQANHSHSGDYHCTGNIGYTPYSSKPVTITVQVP
Described as above.

In test [9] the target is T3, cynomolgus monkey FcγRIIIaS …. Described as above.

These results are taken from patent US20200317768A1 (published 2020).

B1: MS1032LO06-SG1 (M103205H795-SG1/M103202L889-SK1) (antibody, human IgG1, kappa)
heavy: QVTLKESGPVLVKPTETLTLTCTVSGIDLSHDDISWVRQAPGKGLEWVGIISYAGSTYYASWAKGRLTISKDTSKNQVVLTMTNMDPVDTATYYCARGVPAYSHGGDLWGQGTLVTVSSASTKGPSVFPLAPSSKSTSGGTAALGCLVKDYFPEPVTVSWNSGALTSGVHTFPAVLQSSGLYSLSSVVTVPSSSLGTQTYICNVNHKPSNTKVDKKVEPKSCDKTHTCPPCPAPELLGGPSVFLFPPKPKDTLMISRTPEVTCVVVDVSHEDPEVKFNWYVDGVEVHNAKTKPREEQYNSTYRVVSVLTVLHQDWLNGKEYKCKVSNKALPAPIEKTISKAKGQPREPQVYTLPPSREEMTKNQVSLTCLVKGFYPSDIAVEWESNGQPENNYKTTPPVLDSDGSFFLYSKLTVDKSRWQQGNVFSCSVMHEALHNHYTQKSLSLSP
light: DIVMTQSPATLSLSPGERATLSCTSSQSVYHANWLSWFQQKPGQPPKLLIYWASTLAYGVPSRFSGSGSGTDFTLTISSLQPEDAATYYCAGGYGGGRYAFGQGTKVEIKRTVAAPSVFIFPPSDEQLKSGTASVVCLLNNFYPREAKVQWKVDNALQSGNSQESVTEQDSKDSTYSLSSTLTLSKADYEKHKVYACEVTHQGLSSPVTKSFNRGEC
notes: Anti-latent myostatin antibody
For B1, the celluar uptake in [1] was 1 relative to SG1 (=1.00).

B2: MS_M103205H795-SG1/M103202L889-SK1 (antibody, human IgG1, kappa)
heavy: not shown
light: DIVMTQSPATLSLSPGERATLSCTSSQSVYHANWLSWFQQKPGQPPKLLIYWASTLAYGVPSRFSGSGSGTDFTLTISSLQPEDAATYYCAGGYGGGRYAFGQGTKVEIKRTVAAPSVFIFPPSDEQLKSGTASVVCLLNNFYPREAKVQWKVDNALQSGNSQESVTEQDSKDSTYSLSSTLTLSKADYEKHKVYACEVTHQGLSSPVTKSFNRGEC
notes: Parent antibody of the Fc variants; also called MS1032LO06-SG1
Turning to B2, the “KD fold (SG1 = 1)” value in [2] turned out to be 1 fold.

B3: MS_M103205H795-SG1/M103202L889-SK1 (antibody, human IgG1, kappa)
heavy: not shown
light: DIVMTQSPATLSLSPGERATLSCTSSQSVYHANWLSWFQQKPGQPPKLLIYWASTLAYGVPSRFSGSGSGTDFTLTISSLQPEDAATYYCAGGYGGGRYAFGQGTKVEIKRTVAAPSVFIFPPSDEQLKSGTASVVCLLNNFYPREAKVQWKVDNALQSGNSQESVTEQDSKDSTYSLSSTLTLSKADYEKHKVYACEVTHQGLSSPVTKSFNRGEC
notes: also called MS1032LO06-SG1
As to B3, the Kd – broadly, the free concentration of one partner at which half of the binding sites on the other are occupied at equilibrium, for simple one-to-one binding – in test [3] came out at 420 nM; in test [4], 930 nM. In addition, the “amount of FcgR binding (SG1 = 100)” value in test [5], in test [6], in test [7], in test [8] and in test [9] was 100 SG1 = 100 each time.
